{"source": "the DeepSol protein solubility set", "data": [{"test": "soluble on expression in E. coli; label from the status in PepcDB or PDB records", "values": [{"sequence": "MKIVIDLMGADHGVLPIIEGVSRALENKSFSVVLVGDKDKATPFISKELASKVEMIHTQDYIKMEEAATEAIKRKESSIYLGMDILKNGADALISAGHSGATMGLATLRLGRIKGVERPAICTLMPSVGKRPSVLLDAGANTDCKPEYLIDFALMGYEYAKSVLHYDSPKVGLLSNGEEDIKGNTLVKETHKMLKAYDFFYGNVEGSDIFKGVVDVVVCDGFMGNVVLKTTEGVASAIGSIFKDEIKSSFKSKMGALMLKNAFGILKQKTDYAEYGGAPLLGVNKSVIISHGKSNARAVECAIYQAISAVESQVCLRITQAFESLKSQSFESQSDQQDA", "soluble on expression in E. coli": "not soluble"}, {"sequence": "MGHHHHHHHHHHSSGHIEGRHMLGLGASDFEFGVDPSADPELALALRVSMEEQRQRQEEEARRAAAASAAEAGIATTGTEDSDDALLKMTISQQEFGRTGLPDLSSMTEEEQIAYAMQMSLQGAEFGQAESA", "soluble on expression in E. coli": "soluble"}, {"sequence": "SLSPRRLRLLLVDENPTARAVIGRRLSHRHYDVTVVEDGFAAQKTLIIQPSDIILIDMDLQLLPAIGTMEKIRAAHPAGHACIVMIGGASDTPKMIAALDAGADDHIVKPFDFDMLDARLRRVHARAEREG", "soluble on expression in E. coli": "not soluble"}, {"sequence": "MSSLFVVGIGPGSNDLMTPQASLAIERSEYVIGFSLYVSFIKEKFPNKIYISNGMQGEIERAKKAIELARSGHNVSIISSGDAGIYGIAGAVFEILSTLEDNMPEVSVVPGIS", "soluble on expression in E. coli": "soluble"}, {"sequence": "MALKATIYKATVNVADLDRNQFLDASLTLARHPSETQERMMLRLLAWLKYADERLQFTRGLCADDEPEAWLRNDHLGIDLWIELGLPDERRIKKACTQAAEVALFTYNSRAAQIWWQQNQSKCAQFANLSVWYLDDEQLAKVSAFADRTMTL", "soluble on expression in E. coli": "not soluble"}, {"sequence": "MVSKAINSAMNQVDGIVVVGSPGRNLEIEDEKVTFIQSQISDVGKRYFIGLEKIDADYYFLLDYDDIFLSNKVNALKRVFENGKGGAAKESEYYNPSLNYISNVIRNRIDWHISEYSFDADFKKYLLKFVEKYSIPTHVSFDKILFAIMLNYGNMHVVNSKLTEIVSHGDSRMHAKRKRKFYSETYKVFEKFKSIPDLNQSCRQYVEYTYDLNRYLSEPTRENYEHLLASGKYPIPLYKRLYYKYYSIMKPE", "soluble on expression in E. coli": "not soluble"}, {"sequence": "MIEVKPETPDDWWEVEALYDLCFAPGRTALSSYRLRDDVPPVAGLSLVARDSDGTLAGAIRFWPVHVGDLDALLLGPVAVHPTHQGEGLGGFLIQEGLEAGREGGWARVMLVGDAPYYSRFGFARLEGVEMPPPTNPDRVLGLEL", "soluble on expression in E. coli": "not soluble"}, {"sequence": "MGSDKIHHHHHHMANLTFYPIGTAGEKWGETEKAAWLASTQIKRSYQDDVVTPLKAMEAKLSALGLGIVQYGALSINAERYPLFAVKSQQFDPQKPTVLVTGGVHGYETSGVHGALAFLTNEAANYVQQVNLVVAVCVSPWGYETINRWNPKAIDPNRSFYANSPAEESAALMALVASVTSVEQGFDVHVDLHETTDSDELEFRPALCARDGIEYDKGTIPDGFYAVGDTEHSMDAFQKAIIDGVSKVTHIAPADEKGEIIGSTVVQHGVINYPLKSLGLCSSVTGCIYNTTTEVYPDSPTATPAECNLAQVAAITSAIDYVLAQR", "soluble on expression in E. coli": "not soluble"}, {"sequence": "MAKRQQRSNKPSSEYTCLGHLVNLIPGKEQKVEITNRNVTTIGRSRSCDVILSEPDISTFHAEFHLLQMDVDNFQRNLINVIDKSRNGTFINGNRLVKKDYILKNGDRIVFGKSCSFLFKYASSSSTDIENDDEKVSSESRSYRSHHHHHH", "soluble on expression in E. coli": "soluble"}, {"sequence": "MEDFKSGDLILGYYKVLEKLGEGNFGKVYKVEALKGRYKGKVFALKVASNPYSVHYLWKEAQTLILFHHQNIVSLQSYLYKKDKKELYLIYEYMDFGTLKDYVEKKGKLSPEEALKVLRHVVNALEYLHSRGYIHSDLKPENVFGKRVLGGVLWKLGDFSLVRIRGDVSIIDVKGTIGFIAPEIFRGEIHRSSDIYSLGCLTLYMLTGKVPFEGKDFKERKEKNKRGEVEIPEEIPGKLKDLLERMLEVDYKRRFRTARELKEYMVKEGLI", "soluble on expression in E. coli": "soluble"}, {"sequence": "MKPLKRHPALIGLSRDHHHSLSLCVRLLRTPEERHRDELEPHFSELETHFREEETKFAPIWQNVAPELKQRFEKDHARLRQMMASPEYGNAAWNTAFATTLRDHARFEERELFPAAEPFLPA", "soluble on expression in E. coli": "not soluble"}, {"sequence": "MRKTKIVCTIGPASESIEKLEQLIEAGMNVARLNFSHGSHEEHGARIKNIREASKKTGKTVGILLDTKGPEIRTHDFVDGQAELVTGAEVVLSTEQVLGTAEKFSVSYAGLYDDVDPGSRILIDDGLIELEVIEKADGNIRTKVLNSGTVKNKKGVNVPNVSIKLPGITEKDVKDIIFGIEQKVDFIAASFVRKAADVLEIRELLEEHNAQYIQIVPKIENQEGIDNIDSILEVSDGLMVARGDMGVEIPPEEVPLVQKRLIKKCNVLGKPVITATQMLDSMQRNPRPTRAEASDVANAIFDGTDAIMLSGETAAGQYPVEAVTMMANIAVRVEKSLQYEDMFKKRIKEFTPTITDAISQSVAHTALALDVAAIVAPTESGYTAKMISKYRPKSPIVAVTSDEQVGRRLALVWGVQAFMAEKRAASTDEMLDTAIQTGMDAGLIGLGDTVVITAGVPVAETGTTNLMKIHVVGEEVAKGQGIGRKAAKGKVVVAKTAAEAVANVNEGDILVTTSTDKDMIPAIEKAAALVVEEGGLTSHAAVVGVSIGIPVIVGVNGVTATLKNGQEVTVDAARGIVYNGHAEVL", "soluble on expression in E. coli": "soluble"}, {"sequence": "LRIYSADNLLIGEFGEERRDFIKIEEVPKSLKQAILAAEDDRFYQHYGVDYIGVLRAIYSNFKAGGAHQGASTITMQVARNFFLTKEKTLTRKFSEALLAFKIEHSLEKDQILELYINQIYLGQRSYGFSSAAQSYFGKQLTDINLAEAAMLAGLPKAPSRFNPIVNL", "soluble on expression in E. coli": "not soluble"}, {"sequence": "MGSDKIHHHHHHLSSPQYRINMQKYVFRIHPLNTYQLSFFPNYEVNMYKKLNPMIGDRVYRSKGLVMHVGVMVDRDLVAHNSPDNNVEVISMEHFSQGKKVELKRSIGVDPTALKAQLQRISEENRRYCPISFNCEHFANELLGTKDGSEQLLAALLVGSFGLTCKNKWLGLATAGATGLLLCNGLRKYSTT", "soluble on expression in E. coli": "not soluble"}, {"sequence": "ISNRIKGKTVLVTGAGGSIGSEICRQISAFQPKEIILLGHGENSIHSIYTELNGRFGKHIVFHTEIADVQDRDKMFTLMKKYEPHVVYHAAAHKHVPLMEHNPEE", "soluble on expression in E. coli": "not soluble"}, {"sequence": "MGSDKIHHHHHHMARSHRLFELMQALRRHRRTVSGASLAQELGVSLRTIRRDVATLQGMGADIDGEPGLGYILKPGFLLPPLSFTEEELQALMIGAQWVSRQTDDKFAFAVRNALAKISAVLPVEMRPTLEDETFYISKPLSVSTTIDLSEIRRALRDQCKLSITLAIEHAPKDAQIIWPIMLGFIEARRHLAAWCEGDSQYRVIDMDDIADAHVLTERYTRNRRQLIKEWRALEVLPCNVRGETC", "soluble on expression in E. coli": "not soluble"}, {"sequence": "MQQYIGIDVGGTHVKYGVINSDGEELTHHQFDTPEDASTFTRKWQDVVARCQQDYDIAAIGVSFPGHINPHNGHAAKAGALAYLDDVNLMELFSGLTDLPLVVENDANCAALGEMWRGAGQHYENMVCITIGTGIGGGIIVGRELYRGAHFHAGEFGVMPVGNNGESMHKIASTSGLMASCRQALALPAEEMPPADVIFERMATDVHLREAVNDWARYLSRGVYSVISMFDPGVVLIGGGISEQEKLYPLLTRHLETFEMWEALQVPIQPCQLGNQAGRLGAVWLAQQKLDRG", "soluble on expression in E. coli": "not soluble"}, {"sequence": "MSYSPPQPPQRQYSSTLNVDCVDGVYRSQQQVSPLTKQVNHLAYEIPKNKYANNPWNYAPEFLKVFGDLRVHIGGKAVFDCVLLGSPRPRVCWLFNEDKLRFSDVIIEDTADVCRLTIPYVQMHHFGTFTVLCENEVGRATAQAELLPLYE", "soluble on expression in E. coli": "not soluble"}, {"sequence": "MGSDKIHHHHHHMDWTNIPPLYALKAFESAAKHQSFTLAASELFISQSAISKHINTIEIFFGRKLFYRKGPKVFLTKEGESFAGDLRHAFEILSKACENIHRAGIVLTISSPYTFSIRQFIPVLRKYKNQDGFPIVTVETINDDYSHSIVNLKNHDATVKYGDGKFSDEWNCTLLSPECLIVVVSPKLLHLFEKDNRILIDLVYVKSRELDWFSWCEESRLKERFQVINKYEFESMDSAINAVIKGLGVAVVDIGMVCDELMDGVLLTPFKFSFYSGRGYYFLRGGDDDNYLSSLLECVRLDLSGRGLAELCFNDKCDMGNCRLAATKKITK", "soluble on expression in E. coli": "not soluble"}, {"sequence": "MIEFRDVWFWYQEGKTVLKSISFSFSEGTLAIVGPNGSGKTTLVKMLNGLLKPKKGNVLIDGINTKEVSVAELSRIVGYVFQNPDAMFFEENVFKEVAFGPKNLGLNEEEVKKRVRWALEAVGLRGFENRNPFELSGGEKQRLAIACILAMKPKYLVLDEPNTGLDERGLQDLINVIKNLRREGSSIILVTHDIELVLEVADKVLLLKDGELKFFGSTKEFFELDLEGFGLKEPELVKISKDVGINFVRNVEELLKVIGL", "soluble on expression in E. coli": "soluble"}, {"sequence": "MKPESHCVYLELSAEREHKFYEVTVEGAELTIRYGRIGTEGQTQRKSFADSAGAQAEAEKKLVEKRKKGYGDAVRGQTEKKAVEQPRLKLPRKFEPYRERIEATLRPVLLLEVLEEEPGPLGSKVGGVPYRVQGEAWPTDTEGRPLTFLAQLNFADLPPLEGYPENGILQFFIGRDDLYGCDFMRPEEGNPASFEVRWSPEPQMDLSQLDVETPDFDDDGFSPLETLRGFGLRGQQVEQPMSWCDCHFEQAIGLDLCDNSEGPEGRALGEWRQEKYDELATYGHQVGGYPSFTQEDPRTADDPRILLFQLDSEAGKITWGDVGIANFFIDPDDLARWDFSRVAYNWDCTLEHHHHHH", "soluble on expression in E. coli": "soluble"}, {"sequence": "GSLTTISSILSLKREKPDNLAIILQIDFTKLKEEDSLIVVYNSLKALTIKFARLQFCFVDRNNYVLDYGSVLHKIDSLDSISNLKSKSSSTQFSPIWLKNTLYPENIHEHLGIVAVSNSNMEAKKSILFQDYRCFTSFGRRRPNELKIKVGYLNVDYSDKIDELVEASSWTFVLETLCYSFGLSFDEHDDDDEEDN", "soluble on expression in E. coli": "soluble"}, {"sequence": "RAIPIKQSFLLKRSGNSLNKEWKKKYVTLSSNGFLLYHPSINDYIHSTHGKEMDLLRTTVKVPGKRPPRAISAFGPSASGSAGQAEEENFEFLIVSSTGQTWHFEAASFEERDAWVQAIESQILASLQ", "soluble on expression in E. coli": "soluble"}, {"sequence": "MATSFYTGGGEDGDGFNPRVHARIAEREGFQLASGSEDPRTLFVANLDPAITDEFLATLFNQIGAVMKAKIIFEGLNDPYAFVEFSDHNQATLALQSHNGRELLEKEMHVTWAFEPREPGENRSKPETSRHFHVFVGDLCSEIDSTKLREAFVKFGEVSEAKIIRDNNTNKGKGYGFVSYPRREDAERAIDEMNGAWLGRRTIRTNWATRKPDEDGERGGDRGDRRGGGGGGRDRYHNQSEKTYDEIFNQAAADNTSVYVGNIANLGEDEIRRAFDRFGPINEVRTFKIQGYAFVKFETKESAARAIVQMNNADIGGQIVRCSWGKSGDSGKPSERGSGGGGGSGNYGYGYGNSGGGGGSGGPGNSQFSNFNQRPPPSGNGGSGGGSGGQNNQYWQYYSQYYNNPHLMQQWNNYWQKDGPPPPPAAAASSTGGN", "soluble on expression in E. coli": "not soluble"}]}]}
